Results reported in the supplement of paper PMC10724198.
± gives the standard deviation of the averaged measurements.
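Also: PSI is a weighted mean of sequencing reads over stability bins, variants kept only with over 10 reads, mCherry proximal and sfGFP distal, peptide attached via GGGS linker.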

Each sequence was assayed on Saccharomyces cerevisiae (assay: protein stability index of tFT-peptide fusion (C-terminal peptide) (PSI (0-1 scale)); higher = more stable (slower turnover)). Details: genetic background: wild type; temperature: 30 C.
Experimental: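 Multiplexed protein stability (MPS) profiling in S. cerevisiae. Random 12-aa peptides (tFT-X12 library) are fused to the C-terminus of a sfGFP-mCherry tandem fluorescent timer, after mCherry and a GGGS linker. Cells are FACS-sorted into 8 mCherry/sfGFP bins and deep-sequenced. The protein stability index (PSI) is the read-weighted bin average, scaled from 0 (unstable) to 1 (stable). Only peptides with >10 reads are reported; cells were grown at 30 °C in SC-His with glucose.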
With LSFAVFIDFFTA the protein stability index was 0.5223 ± 0.003. TYPSWIYELNKT gave a protein stability index of 0.753 ± 0.077. VRGVCGVGFGVW showed a protein stability index of 0.604 ± 0.046. FCSPPTLPPSPS was tested, and the protein stability index was 0.732 ± 0.024. KPSHNEARKKGG was tested, and the protein stability index was 0.681 ± 0.014. For HISTQREEIDPA, the protein stability index was 0.6506 ± 0.00086. In the case of ESQGYGSQAKLA, the protein stability index is reported as 0.694 ± 0.028. GGVGGRGREWRR was tested, and the protein stability index was 0.7 ± 0.028. ECCDSGLCWLTF gave a protein stability index of 0.754 ± 0.034. For SPLSLPPPHPPP, the protein stability index was 0.654 ± 0.0069. WLVFRISLLRFD gave a protein stability index of 0.541 ± 0.026. For YVGAENRGVQGW, the protein stability index was 0.723 ± 0.016. For SLLSSPFPCLRQ, the protein stability index was 0.766 ± 0.087. VSVSRGTNCCYD showed a protein stability index of 0.686 ± 0.023. Sequence LLPRSSPTPLAH has a protein stability index of 0.735 ± 0.066. KGNRGKDAVKTE showed a protein stability index of 0.7556 ± 0.004. AGRGGSPRFVGR gave a protein stability index of 0.657 ± 0.053. With NPQTVNSPIFPT the protein stability index was 0.752 ± 0.018. Work on DLGIFVSQQIEV yielded a protein stability index of 0.6065 ± 0.0048. KRGSREQQRYWK showed a protein stability index of 0.659 ± 0.027. For AAIVVRLCSLLR, the protein stability index was 0.593 ± 0.0091. PRIKWKIQIIKK gave a protein stability index of 0.668 ± 0.011. For HPPLPLPCAFPP, the protein stability index was 0.7 ± 0.033. For SVVGEKAALMGV, the protein stability index was 0.662 ± 0.014. With FDLPPCVPRARP the protein stability index was 0.767 ± 0.099. SCARARFAPHHS showed a protein stability index of 0.734 ± 0.0092. Sequence NLHLVRNEELVL has a protein stability index of 0.6743 ± 0.0036. For SGEVSYVYVGNK, the protein stability index was 0.6553 ± 0.0011. With DIQINENIYKNK the protein stability index was 0.687 ± 0.048. VARCWGGLGLAR gave a protein stability index of 0.692 ± 0.047. PPPRPPRPPCPF gave a protein stability index of 0.732 ± 0.059. In the case of PGNFLSVSMSIC, the protein stability index is reported as 0.649 ± 0.051. LPDPPEPHLRLP was tested, and the protein stability index was 0.694 ± 0.025. Sequence GSTLWGMAGGAR has a protein stability index of 0.6985 ± 0.0056. For ERYRDVPVTSNR, the protein stability index was 0.724 ± 0.013. ETKKEETKRWRR was tested, and the protein stability index was 0.6789 ± 0.0025. With PTLPTPAARPGR the protein stability index was 0.696 ± 0.016. Sequence PPPPTQPPARPP has a protein stability index of 0.68 ± 0.014. With LDSPGIDRRSFM the protein stability index was 0.737 ± 0.064. KRVIVRLASYAS was tested, and the protein stability index was 0.55909 ± 2.1e-05. KKEKKVKKNRKR showed a protein stability index of 0.729 ± 0.021. With VDWVEAYVCVGV the protein stability index was 0.538 ± 0.024. In the case of KKNKAKRKKYIV, the protein stability index is reported as 0.616 ± 0.03. Work on RGNSPPPSSPPL yielded a protein stability index of 0.687 ± 0.038. For GLSSVVWSGGLC, the protein stability index was 0.6222 ± 0.0047. ESALPFLYSLSG showed a protein stability index of 0.703 ± 0.021. RRMIKNVRRHKV was tested, and the protein stability index was 0.661 ± 0.075. Sequence DCLSVWCSIPGA has a protein stability index of 0.775 ± 0.086. In the case of TGLYWGQIPYSQ, the protein stability index is reported as 0.687 ± 0.062. In the case of PSPPASTPLPPP, the protein stability index is reported as 0.684 ± 0.024. VAVDGSDQGGTR gave a protein stability index of 0.64 ± 0.079. Sequence LLYPALQHVSSV has a protein stability index of 0.721 ± 0.12. SSSHIRTDLSHF showed a protein stability index of 0.6852 ± 0.0065. In the case of SHLKEHREEELE, the protein stability index is reported as 0.647 ± 0.0097. Work on VGGGPVWREPGT yielded a protein stability index of 0.796 ± 0.025. For WRLAGRRGIQCD, the protein stability index was 0.7 ± 0.017. VRFRCIPGSPVC gave a protein stability index of 0.643 ± 0.0094. RGFGPTPRSSGG was tested, and the protein stability index was 0.707 ± 0.046. RILFGALYSSCK showed a protein stability index of 0.6782 ± 0.0062. For MTSCAVDHPERR, the protein stability index was 0.703 ± 0.0047. For EDSKLVSRLSRS, the protein stability index was 0.712 ± 0.082. With AWRWGVGVGSGS the protein stability index was 0.735 ± 0.17. In the case of IRIDRNLNSLGK, the protein stability index is reported as 0.685 ± 0.017. VWGLGWEFWWGV gave a protein stability index of 0.7157 ± 0.0021. Work on RHAMNPNTSRVL yielded a protein stability index of 0.601 ± 0.042. In the case of GERAGGPGRGRE, the protein stability index is reported as 0.683 ± 0.069. ATYPVPMPPTPQ was tested, and the protein stability index was 0.734 ± 0.037. Work on RVTPGLSIFFWP yielded a protein stability index of 0.729 ± 0.0094. Sequence LSARVSYRITLR has a protein stability index of 0.599 ± 0.019. VVEYCEGKAVYF showed a protein stability index of 0.695 ± 0.025. With SCHGGWFLHVFT the protein stability index was 0.645 ± 0.018. In the case of LFLTPTSPVAAL, the protein stability index is reported as 0.651 ± 0.065. Sequence LPLASIYQLRSN has a protein stability index of 0.713 ± 0.039.
